The text below walks through data of US10138283 (AMBRX, dated 2018).

Like-named read-outs stand apart in the source and are kept apart here. [ ]: non-standard residue; d: D form. Phe(4-Ac) = CC(=O)c1ccc(C[C@H](N)C(=O)O)cc1

Holding throughout (experiment): cell-based or functional assay
Experiment [1] concerns the target T1, G-CSF receptor on M-NFS60 cells (UniProt P40223 26-837, limits assumed).
T1 sequence (looked up): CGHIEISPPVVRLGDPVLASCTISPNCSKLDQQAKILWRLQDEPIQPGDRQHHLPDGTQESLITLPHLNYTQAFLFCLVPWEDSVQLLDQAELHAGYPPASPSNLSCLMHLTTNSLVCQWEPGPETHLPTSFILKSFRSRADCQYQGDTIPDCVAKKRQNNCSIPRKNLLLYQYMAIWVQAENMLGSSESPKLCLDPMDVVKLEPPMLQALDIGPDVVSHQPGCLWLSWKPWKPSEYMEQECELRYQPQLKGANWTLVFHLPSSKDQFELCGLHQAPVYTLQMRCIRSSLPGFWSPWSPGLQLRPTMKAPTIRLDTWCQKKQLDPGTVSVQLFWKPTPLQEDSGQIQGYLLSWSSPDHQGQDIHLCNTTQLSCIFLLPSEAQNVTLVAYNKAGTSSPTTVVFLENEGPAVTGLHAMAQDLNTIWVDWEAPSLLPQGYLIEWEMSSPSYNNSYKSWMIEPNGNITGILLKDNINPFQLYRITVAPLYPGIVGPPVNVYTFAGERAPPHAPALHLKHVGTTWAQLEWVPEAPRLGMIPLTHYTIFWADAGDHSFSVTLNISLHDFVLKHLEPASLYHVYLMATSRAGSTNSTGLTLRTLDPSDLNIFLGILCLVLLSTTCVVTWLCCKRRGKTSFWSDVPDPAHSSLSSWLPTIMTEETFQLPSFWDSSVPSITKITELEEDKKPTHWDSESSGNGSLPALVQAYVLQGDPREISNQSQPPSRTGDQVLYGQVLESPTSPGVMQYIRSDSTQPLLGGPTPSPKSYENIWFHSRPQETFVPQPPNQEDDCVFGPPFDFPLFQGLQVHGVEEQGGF

The target of experiment [2] is T1, G-CSF receptor on M-NFS60 cells. This is another data set of the same source.
For experiment [3] the target is unchanged. The source holds these as a separate data set.
Experiment [4] shares this target. This is another data set of the same source.
The target is the same in experiment [5]. This is another data set of the same source.

As for “Neulasta (pegfilgrastim) (from UniProt P09919 31-204) (ligand)”, in experiment [1], the M-NFS60 proliferation assay, Avg EC50 [ng/ml] turned out to be 0.077 ng/mL and the M-NFS60 proliferation assay, Fold Diff EC50 [X] stood at 3.2 fold.
Turning to “Neupogen (filgrastim) (from UniProt P09919 31-204) (ligand)”, in experiment [1], the M-NFS60 proliferation assay, Avg EC50 [ng/ml] came to 0.025 ng/mL and the M-NFS60 proliferation assay, Fold Diff EC50 [X] was determined as 1 fold.

B1: bG-CSF T133pAF-20K PEG (ligand)
chain: MTPLGPARSLPQSFLLKCLEQVRKIQADGAELQERLCAAHKLCHPEELMLLRHSLGIPQAPLSSCSSQSLQLTSCLNQLHGGLFLYQGLLQALAGISPELAPTLDTLQLDVTDFATNIWLQMEDLGAAPAVQP[Phe(4-Ac)](PEG 20 kDa (hydroxylamine/oxyamino PEG))QGAMPTFTSAFQRRAGGVLVASQLHRFLELAYRGLRYLAEP
Regarding B1, the “M-NFS60 proliferation assay, Fold Diff EC50 [X] vs. WT bG-CSF (batch NK2)” value in experiment [2] worked out at 5.1 fold. The “M-NFS60 proliferation assay, Avg EC50 [ng/ml] (batch NK2)” value in experiment [3] is 0.27 ng/mL. The “M-NFS60 proliferation assay, Avg EC50 Values (batch NK1)” value in experiment [4] came to 0.258 ng/mL.

B2: 20k PEG-bL3 (bG-CSF L3pAF, 20K PEG) (ligand)
chain: TP[Phe(4-Ac)](PEG 20 kDa)GPARSLPQSFLLKCLEQVRKIQADGAELQERLCAAHKLCHPEELMLLRHSLGIPQAPLSSCSSQSLQLTSCLNQLHGGLFLYQGLLQALAGISPELAPTLDTLQLDVTDFATNIWLQMEDLGAAPAVQPTQGAMPTFTSAFQRRAGGVLVASQLHRFLELAYRGLRYLAEP
modifications: not fully specified (N-terminus)
B2 displayed a M-NFS60 proliferation assay, Avg EC50 Values in experiment [5] of 0.477 ng/mL.

B3: 20k PEG-bR166 (bG-CSF R166pAF, 20K PEG) (ligand)
chain: MTPLGPARSLPQSFLLKCLEQVRKIQADGAELQERLCAAHKLCHPEELMLLRHSLGIPQAPLSSCSSQSLQLTSCLNQLHGGLFLYQGLLQALAGISPELAPTLDTLQLDVTDFATNIWLQMEDLGAAPAVQPTQGAMPTFTSAFQRRAGGVLVASQLHRFLELAY[Phe(4-Ac)](PEG 20 kDa)GLRYLAEP
As to B3, in experiment [4], the “M-NFS60 proliferation assay, Avg EC50 Values” was 0.363 ng/mL.

B4: 20k PEG-bS62 (bG-CSF S62pAF, 20K PEG) (ligand)
chain: MTPLGPARSLPQSFLLKCLEQVRKIQADGAELQERLCAAHKLCHPEELMLLRHSLGIPQAPL[Phe(4-Ac)](PEG 20 kDa)SCSSQSLQLTSCLNQLHGGLFLYQGLLQALAGISPELAPTLDTLQLDVTDFATNIWLQMEDLGAAPAVQPTQGAMPTFTSAFQRRAGGVLVASQLHRFLELAYRGLRYLAEP
On to B4, for which the “M-NFS60 proliferation assay, Avg EC50 Values” in experiment [4] is 0.15 ng/mL.

B5: wild-type bovine G-CSF (ligand)
chain: MTPLGPARSLPQSFLLKCLEQVRKIQADGAELQERLCAAHKLCHPEELMLLRHSLGIPQAPLSSCSSQSLQLTSCLNQLHGGLFLYQGLLQALAGISPELAPTLDTLQLDVTDFATNIWLQMEDLGAAPAVQPTQGAMPTFTSAFQRRAGGVLVASQLHRFLELAYRGLRYLAEP
With B5, the “M-NFS60 proliferation assay, Fold Diff EC50 [X]” value in experiment [2] was 1 fold. In experiment [3], the “M-NFS60 proliferation assay, Avg EC50 [ng/ml]” value came out at 0.053 ng/mL.

B6: 20k PEG-bR7 (bG-CSF R7pAF, 20K PEG) (ligand)
chain: MTPLGPA[Phe(4-Ac)](PEG 20 kDa)SLPQSFLLKCLEQVRKIQADGAELQERLCAAHKLCHPEELMLLRHSLGIPQAPLSSCSSQSLQLTSCLNQLHGGLFLYQGLLQALAGISPELAPTLDTLQLDVTDFATNIWLQMEDLGAAPAVQPTQGAMPTFTSAFQRRAGGVLVASQLHRFLELAYRGLRYLAEP
For the molecule B6, the “M-NFS60 proliferation assay, Avg EC50 Values” in experiment [4] was 0.348 ng/mL.
